Results from patent US20240270846A1 (published 2024).
Residue numbers refer to the chain shown, from its start. Names may count otherwise.

B1: CE115HA000 H chain altered form S52cY (antibody, human IgG1, kappa, L234A L235A, N297A, name in Kabat numbering)
heavy: QVQLVESGGGVVQPGRSLRLSCAASGFTFSNAWMHWVRQAPGKGLEWVAQIKAKYNNYATYYAESVKGRFTISRDDSKNSLYLQMNSLKTEDTAVYYCRYVHYGAYYGVDAWGQGTTVTVSSASTKGPSVFPLAPSSKSTSGGTAALGCLVKDYFPEPVTVSWNSGALTSGVHTFPAVLQSSGLYSLSSVVTVPSSSLGTQTYICNVNHKPSNTKVDKKVEPKSCDKTHTCPPCPAPEAAGGPSVFLFPPKPKDTLMISRTPEVTCVVVDVSHEDPEVKFNWYVDGVEVHNAKTKPREEQYASTYRVVSVLTVLHQDWLNGKEYKCKVSNKALPAPIEKTISKAKGQPREPQVYTLPPSRCELTKNQVSLSCAVKGFYPSDIAVEWESNGQPENNYKTTPPVLDSDGSFFLVSKLTVDKSRWQQGNVFSCSVMHEALHNHYTQKSLSLSPDYKDDDDK
chain: EPKSSDKTHTCPPCPAPELLGGPSVFLFPPKPKDTLMISRTPEVTCVVVDVSHEDPEVKFNWYVDGVEVHNAKTKPREEQYNSTYRVVSVLTVLHQDWLNGKEYKCKVSNKALPAPIEKTISKAKGQPREPQVCTLPPSRDELTKNQVSLWCLVKGFYPSDIAVEWESNGQPENNYKTTPPVLDSDGSFFLYSKLTVDKSRWQQGNVFSCSVMHEALHNRYTQKSLSLSP
light: DIVMTQSPLSLPVTPGEPASISCRSSQSLVHSNRNTYLHWYQQKPGQAPRLLIYKVSNRFSGVPDRFSGSGSGTDFTLKISRVEAEDVGVYYCGQGTQVPYTFGQGTKLEIKRTVAAPSVFIFPPSDEQLKSGTASVVCLLNNFYPREAKVQWKVDNALQSGNSQESVTEQDSKDSTYSLSSTLTLSKADYEKHKVYACEVTHQGLSSPVTKSFNRGEC
notes: one-arm antibody
B2: CE115HA000 H chain altered form Y58L (antibody, human IgG1, kappa, L234A L235A, N297A, name in Kabat numbering)
heavy: B1 heavy with Y55S, Y61L
chain: B1 chain
light: B1 light
notes: one-arm antibody
B3: CE115HA000 H chain altered form W33A (antibody, human IgG1, kappa, L234A L235A, N297A, name in Kabat numbering)
heavy: B1 heavy with W33A, Y55S
chain: B1 chain
light: B1 light
notes: one-arm antibody
B4: CE115HA000 H chain altered form T28S (antibody, human IgG1, kappa, L234A L235A, N297A, name in Kabat numbering)
heavy: B1 heavy with T28S, Y55S
chain: B1 chain
light: B1 light
notes: one-arm antibody
B5: CE115HA000 H chain altered form V11L (antibody, human IgG1, kappa, L234A L235A, N297A, name in Kabat numbering)
heavy: B1 heavy with V11L, Y55S
chain: B1 chain
light: B1 light
notes: one-arm antibody
B6: CE115HA000 H chain altered form W33D (antibody, human IgG1, kappa, L234A L235A, N297A, name in Kabat numbering)
heavy: B1 heavy with W33D, Y55S
chain: B1 chain
light: B1 light
notes: one-arm antibody
B7: CE115HA000 H chain altered form Y58D (antibody, human IgG1, kappa, L234A L235A, N297A, name in Kabat numbering)
heavy: B1 heavy with Y55S, Y61D
chain: B1 chain
light: B1 light
notes: one-arm antibody
B8: CE115HA000 H chain altered form T57K (antibody, human IgG1, kappa, L234A L235A, N297A, name in Kabat numbering)
heavy: B1 heavy with Y55S, T60K
chain: B1 chain
light: B1 light
notes: one-arm antibody
B9: CE115HA000 H chain altered form T28D (antibody, human IgG1, kappa, L234A L235A, N297A, name in Kabat numbering)
heavy: B1 heavy with T28D, Y55S
chain: B1 chain
light: B1 light
notes: one-arm antibody
B10: CE115HA000 H chain altered form Y55D (antibody, human IgG1, kappa, L234A L235A, N297A, name in Kabat numbering)
heavy: B1 heavy with Y55S, Y58D
chain: B1 chain
light: B1 light
notes: one-arm antibody
B11: CE115HA000 H chain altered form Y55G (antibody, human IgG1, kappa, L234A L235A, N297A, name in Kabat numbering)
heavy: B1 heavy with Y55S, Y58G
chain: B1 chain
light: B1 light
notes: one-arm antibody
B12: CE115HA000 H chain altered form Y58A (antibody, human IgG1, kappa, L234A L235A, N297A, name in Kabat numbering)
heavy: B1 heavy with Y55S, Y61A
chain: B1 chain
light: B1 light
notes: one-arm antibody
B13: CE115HA000 H chain altered form T57A (antibody, human IgG1, kappa, L234A L235A, N297A, name in Kabat numbering)
heavy: B1 heavy with Y55S, T60A
chain: B1 chain
light: B1 light
notes: one-arm antibody
B14: CE115HA000 H chain altered form W33L (antibody, human IgG1, kappa, L234A L235A, N297A, name in Kabat numbering)
heavy: B1 heavy with W33L, Y55S
chain: B1 chain
light: B1 light
notes: one-arm antibody
B15: CE115HA000 H chain altered form W33H (antibody, human IgG1, kappa, L234A L235A, N297A, name in Kabat numbering)
heavy: B1 heavy with W33H, Y55S
chain: B1 chain
light: B1 light
notes: one-arm antibody
B16: CE115HA000 H chain altered form Y58Q (antibody, human IgG1, kappa, L234A L235A, N297A, name in Kabat numbering)
heavy: B1 heavy with Y55S, Y61Q
chain: B1 chain
light: B1 light
notes: one-arm antibody
B17: CE115HA000 H chain altered form Y58S (antibody, human IgG1, kappa, L234A L235A, N297A, name in Kabat numbering)
heavy: B1 heavy with Y55S, Y61S
chain: B1 chain
light: B1 light
notes: one-arm antibody
B18: CE115HA000 H chain altered form T57I (antibody, human IgG1, kappa, L234A L235A, N297A, name in Kabat numbering)
heavy: B1 heavy with Y55S, T60I
chain: B1 chain
light: B1 light
notes: one-arm antibody
B19: CE115HA000 H chain altered form Y59D (antibody, human IgG1, kappa, L234A L235A, N297A, name in Kabat numbering)
heavy: B1 heavy with Y55S, Y62D
chain: B1 chain
light: B1 light
notes: one-arm antibody
B20: CE115HA000 H chain altered form Y59E (antibody, human IgG1, kappa, L234A L235A, N297A, name in Kabat numbering)
heavy: B1 heavy with Y55S, Y62E
chain: B1 chain
light: B1 light
notes: one-arm antibody
B21: CE115HA000 H chain altered form W33Y (antibody, human IgG1, kappa, L234A L235A, N297A, name in Kabat numbering)
heavy: B1 heavy with W33Y, Y55S
chain: B1 chain
light: B1 light
notes: one-arm antibody
B22: CE115HA000 H chain altered form T57N (antibody, human IgG1, kappa, L234A L235A, N297A, name in Kabat numbering)
heavy: B1 heavy with Y55S, T60N
chain: B1 chain
light: B1 light
notes: one-arm antibody
B23: CE115HA000 H chain altered form Y59S (antibody, human IgG1, kappa, L234A L235A, N297A, name in Kabat numbering)
heavy: B1 heavy with Y55S, Y62S
chain: B1 chain
light: B1 light
notes: one-arm antibody
B24: CE115HA000 H chain altered form Y59A (antibody, human IgG1, kappa, L234A L235A, N297A, name in Kabat numbering)
heavy: B1 heavy with Y55S, Y62A
chain: B1 chain
light: B1 light
notes: one-arm antibody
B25: CE115HA000 H chain altered form Y55S (antibody, human IgG1, kappa, L234A L235A, N297A, name in Kabat numbering)
heavy: B1 heavy with Y55S, Y58S
chain: B1 chain
light: B1 light
notes: one-arm antibody
B26: CE115HA000 H chain altered form Y58N (antibody, human IgG1, kappa, L234A L235A, N297A, name in Kabat numbering)
heavy: B1 heavy with Y55S, Y61N
chain: B1 chain
light: B1 light
notes: one-arm antibody
B27: CE115HA000 H chain altered form W33F (antibody, human IgG1, kappa, L234A L235A, N297A, name in Kabat numbering)
heavy: B1 heavy with W33F, Y55S
chain: B1 chain
light: B1 light
notes: one-arm antibody
B28: CE115HA000 H chain altered form Y58K (antibody, human IgG1, kappa, L234A L235A, N297A, name in Kabat numbering)
heavy: B1 heavy with Y55S, Y61K
chain: B1 chain
light: B1 light
notes: one-arm antibody
B29: GLS3000 H27dA (Kabat) L chain altered form, one-arm antibody with CE115HA000 (antibody, human IgG1, kappa, L234A L235A, N297A, name in Kabat numbering)
heavy: B1 heavy with Y55S
chain: B1 chain
light: B1 light with H31A
notes: one-arm antibody
B30: GLS3000 H27dD (Kabat) L chain altered form, one-arm antibody with CE115HA000 (antibody, human IgG1, kappa, L234A L235A, N297A, name in Kabat numbering)
heavy: B1 heavy with Y55S
chain: B1 chain
light: B1 light with H31D
notes: one-arm antibody
B31: GLS3000 H27dE (Kabat) L chain altered form, one-arm antibody with CE115HA000 (antibody, human IgG1, kappa, L234A L235A, N297A, name in Kabat numbering)
heavy: B1 heavy with Y55S
chain: B1 chain
light: B1 light with H31E
notes: one-arm antibody
B32: GLS3000 H27dF (Kabat) L chain altered form, one-arm antibody with CE115HA000 (antibody, human IgG1, kappa, L234A L235A, N297A, name in Kabat numbering)
heavy: B1 heavy with Y55S
chain: B1 chain
light: B1 light with H31F
notes: one-arm antibody
B33: GLS3000 F55A (Kabat) L chain altered form, one-arm antibody with CE115HA000 (antibody, human IgG1, kappa, L234A L235A, N297A, name in Kabat numbering)
heavy: B1 heavy with Y55S
chain: B1 chain
light: B1 light with F60A
notes: one-arm antibody

Each binder was assayed against T1, CD3 epsilon homodimer protein (UniProt P07766 23-126) (assay: SPR Biacore T200, CD3 epsilon homodimer on chip, antibody as analyte;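 also: homodimer amine-coupled to a CM4 sensor chip, run at 25 °C in HBS-EP+ buffer, with kinetic parameters derived in Biacore T200 Evaluation Software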).
T1 construct: also called CD3 (CD3 epsilon)
T1 sequence (P07766 23-126): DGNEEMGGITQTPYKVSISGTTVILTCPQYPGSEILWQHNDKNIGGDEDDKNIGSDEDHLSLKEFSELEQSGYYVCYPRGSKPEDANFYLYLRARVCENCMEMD

| KD ratio (KD of CE115HA000 / KD of altered form) | Binder |
| --- | --- |
| 0.87 | B1 |
| 1.21 | B2 |
| 30 | B3 |
| 0.79 | B4 |
| 0.83 | B5 |
| 1690 | B6 |
| 4.81 | B7 |
| 1.22 | B8 |
| 0.93 | B9 |
| 0.89 | B10 |
| 0.99 | B11 |
| 1.06 | B12 |
| 0.87 | B13 |
| 56600 | B14 |
| 4.96 | B15 |
| 1.24 | B16 |
| 1.22 | B17 |
| 0.81 | B18 |
| 0.66 | B19 |
| 0.61 | B20 |
| 0.69 | B21 |
| 0.9 | B22 |
| 0.79 | B23 |
| 0.74 | B24 |
| 5.65 | B25 |
| 1.86 | B26 |
| 0.66 | B27 |
| 0.66 | B28 |

Each binder was assayed against T2, CD3 epsilon homodimer protein (UniProt P07766 23-126) (assay: SPR Biacore T200, CD3 epsilon homodimer immobilized; vs unaltered GLS3000;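 also: antibody variants flowed as analyte over CD3 epsilon homodimer amine-coupled to a CM4 chip, at 25 °C in HBS-EP+ running buffer, fitted with Biacore T200 Evaluation Software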).
T2 construct: construct not described; homodimer as printed; also called CD3 (CD3 epsilon)
T2 sequence (P07766 23-126): as above

| KD ratio to GLS3000 (Affinity up) | Binder |
| --- | --- |
| 2.57 | B29 |
| 13600 | B30 |
| 42.3 | B31 |
| 2.05 | B32 |
| 1.16 | B33 |
